The test has as its target c8-ring of the Fo domain (bovine (endogenous in bovine heart mitochondria)), P32876. The test can be described thus: cryo-EM structure. The following applies: remark: other sources report otherwise.

B1: c8-ring of the Fo domain, P32876 62-136 (natural protein)
chain: DIDTAAKFIGAGAATVGVAGSGAGIGTVFGSLIIGYARNPSLKQQLFSYAILGFALSEAMGLFCLMVAFLILFAM
As for B1, the stoichiometry N (as a rule, the number of molecules, sites or subunits per partner or assembly) came out at 8.
